From patent US6875581 come the findings set out here.

The test addresses calcineurin (recombinant or partly purified, phosphoserine phosphatase assay). Put plainly: cell-based or functional assay.
For “recombinant human CuZnSOD mutation G93A (from UniProt P00441 2-154) (enzyme)”, the Percentage of FK506 inhibitable RII-phosphopeptide activity after 20 min compared with the activity at 0 min; constant activity (1.67 U) was 21% and the Percentage of FK506 inhibitable RII-phosphopeptide activity after 20 min compared with the activity at 0 min; constant protein (3 ug) came out at 16%.

With “recombinant human CuZnSOD mutation A4V (from UniProt P00441 2-154) (enzyme)”, the Percentage of FK506 inhibitable RII-phosphopeptide activity after 20 min compared with the activity at 0 min; constant activity (1.67 U) is 8% and the Percentage of FK506 inhibitable RII-phosphopeptide activity after 20 min compared with the activity at 0 min; constant protein (3 ug) is 22%.

On to “purified human erythrocyte CuZnSOD (Sigma Aldrich) (from UniProt P00441 2-154) (enzyme)”, for which the Percentage of FK506 inhibitable RII-phosphopeptide activity after 20 min compared with the activity at 0 min; constant activity (1.67 U) was determined as 57%, the Percentage of FK506 inhibitable RII-phosphopeptide activity after 20 min compared with the activity at 0 min; constant protein (3 ug) worked out at 57% and the protection of calcineurin after calcium induced redox inactivation fell in the range of 50 to 100%.

Take “recombinant human CuZnSOD mutation D90A (from UniProt P00441 2-154) (enzyme)”: the Percentage of FK506 inhibitable RII-phosphopeptide activity after 20 min compared with the activity at 0 min; constant activity (1.67 U) came to 32% and the Percentage of FK506 inhibitable RII-phosphopeptide activity after 20 min compared with the activity at 0 min; constant protein (3 ug) is 42%.

In the case of “recombinant human wild-type CuZnSOD (from UniProt P00441 2-154) (enzyme)”, the Percentage of FK506 inhibitable RII-phosphopeptide activity after 20 min compared with the activity at 0 min; constant activity (1.67 U) amounted to 56%, the Percentage of FK506 inhibitable RII-phosphopeptide activity after 20 min compared with the activity at 0 min; constant protein (3 ug) was determined as 70% and the protection of calcineurin after calcium induced redox inactivation was 50 to 100%.
